Read-outs that look alike come from different tables or passages of the source.
T1: EbfC (Borrelia burgdorferi, UniProt O51418 1-99)
T1 sequence: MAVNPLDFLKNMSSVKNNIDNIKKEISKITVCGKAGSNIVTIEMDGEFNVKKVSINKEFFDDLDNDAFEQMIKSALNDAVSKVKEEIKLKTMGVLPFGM


Tests used:
[1] = target: the molecule itself; test: SEC
[2] = target: T1, EbfC; test: EMSA
[3] = target: T1, EbfC; test: EMSA; remark: listed apart in the source
[4] = target: T1, EbfC; test: EMSA; remark: listed apart in the source

| Binder | stoichiometry N [1] | also measured |
| --- | --- | --- |
| EbfC K16A mutant (natural protein, Borrelia burgdorferi strain B31, UniProt O51418 1-99, looked up) MAVNPLDFLKNMSSVANNIDNIKKEISKITVCGKAGSNIVTIEMDGEFNVKKVSINKEFFDDLDNDAFEQMIKSALNDAVSKVKEEIKLKTMGVLPFGM | 2 |  |
| EbfC K23A mutant (natural protein, Borrelia burgdorferi strain B31, UniProt O51418 1-99, looked up) MAVNPLDFLKNMSSVKNNIDNIAKEISKITVCGKAGSNIVTIEMDGEFNVKKVSINKEFFDDLDNDAFEQMIKSALNDAVSKVKEEIKLKTMGVLPFGM | 2 |  |
| EbfC K82A mutant (natural protein, Borrelia burgdorferi strain B31, UniProt O51418 1-99, looked up) MAVNPLDFLKNMSSVKNNIDNIKKEISKITVCGKAGSNIVTIEMDGEFNVKKVSINKEFFDDLDNDAFEQMIKSALNDAVSAVKEEIKLKTMGVLPFGM | 2 |  |
| EbfC D20A mutant (natural protein, Borrelia burgdorferi strain B31, UniProt O51418 1-99, looked up) MAVNPLDFLKNMSSVKNNIANIKKEISKITVCGKAGSNIVTIEMDGEFNVKKVSINKEFFDDLDNDAFEQMIKSALNDAVSKVKEEIKLKTMGVLPFGM | 2 |  |
| EbfC D78A mutant (natural protein, Borrelia burgdorferi strain B31, UniProt O51418 1-99, looked up) MAVNPLDFLKNMSSVKNNIDNIKKEISKITVCGKAGSNIVTIEMDGEFNVKKVSINKEFFDDLDNDAFEQMIKSALNAAVSKVKEEIKLKTMGVLPFGM | 2 |  |
| EbfC K84A mutant (natural protein, Borrelia burgdorferi strain B31, UniProt O51418 1-99, looked up) MAVNPLDFLKNMSSVKNNIDNIKKEISKITVCGKAGSNIVTIEMDGEFNVKKVSINKEFFDDLDNDAFEQMIKSALNDAVSKVAEEIKLKTMGVLPFGM | 2 |  |
| EbfC K88A mutant (natural protein, Borrelia burgdorferi strain B31, UniProt O51418 1-99, looked up) MAVNPLDFLKNMSSVKNNIDNIKKEISKITVCGKAGSNIVTIEMDGEFNVKKVSINKEFFDDLDNDAFEQMIKSALNDAVSKVKEEIALKTMGVLPFGM | 2 |  |
| EbfC E85A mutant (natural protein, Borrelia burgdorferi strain B31, UniProt O51418 1-99, looked up) MAVNPLDFLKNMSSVKNNIDNIKKEISKITVCGKAGSNIVTIEMDGEFNVKKVSINKEFFDDLDNDAFEQMIKSALNDAVSKVKAEIKLKTMGVLPFGM | 2 |  |
| b-C30 (dsDNA) DNA 1: TTGTAATGAGTAGTGCATTTGCAATGGAGAGATTTTGGGGAGTTGTTTAAAATTACATTTGCGTTTTGTTAAAACACAACAGCTGAATGTAACTAAATTATATATTTAAATCTTTGAAATATTGC DNA 2: GCAATATTTCAAAGATTTAAATATATAATTTAGTTACATTCAGCTGTTGTGTTTTAACAAAACGCAAATGTAATTTTAAACAACTCCCCAAAATCTCTCCATTGCAAATGCACTACTCATTACAA |  | binding result [2]: binds |
| b-C2+3 (dsDNA) DNA 1: TTGTAATGAGTAGTGCATTTGCAATGGAGAGATTTTGGGGAGTTGTTTAAAATTACATTTGCGTTTTGTTACAACACAACAGCTGAATGTAACAAAATTATATATTTAAATCTTTGAAATATTGC DNA 2: GCAATATTTCAAAGATTTAAATATATAATTTTGTTACATTCAGCTGTTGTGTTGTAACAAAACGCAAATGTAATTTTAAACAACTCCCCAAAATCTCTCCATTGCAAATGCACTACTCATTACAA |  | binding result [3]: binds |
| b-C40 (dsDNA) DNA 1: TTGTAATGAGTAGTGCATTTGCAATGGAGAGATTTTGGGGAGTTGTTTAAAATTACATTTGCGTTTTGTTAAAACACAACAGCTGAATGTGACAAAATTATATATTTAAATCTTTGAAATATTGC DNA 2: GCAATATTTCAAAGATTTAAATATATAATTTTGTCACATTCAGCTGTTGTGTTTTAACAAAACGCAAATGTAATTTTAAACAACTCCCCAAAATCTCTCCATTGCAAATGCACTACTCATTACAA |  | binding result [2]: binds |
| b-C50 (dsDNA) DNA 1: TTGTAATGAGTAGTGCATTTGCAATGGAGAGATTTTGGGGAGTTGTTTAAAATTACATTTGCGTTTTGTTAAAACACAACAGCTGAATGTATCAAAATTATATATTTAAATCTTTGAAATATTGC DNA 2: GCAATATTTCAAAGATTTAAATATATAATTTTGATACATTCAGCTGTTGTGTTTTAACAAAACGCAAATGTAATTTTAAACAACTCCCCAAAATCTCTCCATTGCAAATGCACTACTCATTACAA |  | binding result [4]: no binding |
| b-C20 (dsDNA) DNA 1: TTGTAATGAGTAGTGCATTTGCAATGGAGAGATTTTGGGGAGTTGTTTAAAATTACATTTGCGTTTTGTTAAAACACAACAGCTGAATGTAAAAAAATTATATATTTAAATCTTTGAAATATTGC DNA 2: GCAATATTTCAAAGATTTAAATATATAATTTTTTTACATTCAGCTGTTGTGTTTTAACAAAACGCAAATGTAATTTTAAACAACTCCCCAAAATCTCTCCATTGCAAATGCACTACTCATTACAA |  | binding result [4]: no binding |
| b-C1/2+3 (dsDNA) DNA 1: TTGTAATGAGTAGTGCATTTGCAATGGAGAGATTTTGGGGAGTTGTTTAAAATTACATTTGCGTTTTGTTACAACACAACAGCTGAACACAACAAAATTATATATTTAAATCTTTGAAATATTGC DNA 2: GCAATATTTCAAAGATTTAAATATATAATTTTGTTGTGTTCAGCTGTTGTGTTGTAACAAAACGCAAATGTAATTTTAAACAACTCCCCAAAATCTCTCCATTGCAAATGCACTACTCATTACAA |  | binding result [3]: binds |

Source: paper PMC2665219 (Nucleic Acids Research, 2009)
